Data taken from patent US20090304580A1 (published 2009).
Positions of bridges follow the written chain, without caps; N, C: chain ends. No end group written: not given here.

Tests used:
[1] = target: T1, PAM4 antigen (human pancreatic cancer mucin, CaPan1) (human); assay: ELISA on target mucin antigen (FIG. 9)
T1 construct: Mucin preparation or cell extract from human pancreatic cancer (CaPan1 xenografts); coated on plates or captured by PAM4 in the immunoassays; also called CaPan1 Ag; CaPan1 antigens

[2] = target: T2, cyclic phage-displayed peptide ACPEWWGTTC (disulfide 2-10); assay: screen of phage-displayed peptides (cyclic library) after panning against hPAM4
T2 construct: also called cyclic peptide
T2 peptide: ACPEWWGTTC

B1: humanized PAM4 antibody (hPAM4 IgG) (antibody, V domains shown)
VH: QVQLQQSGAEVKKPGASVKVSCEASGYTFPSYVLHWVKQAPGQGLEWIGYINPYNDGTQYNEKFKGKATLTRDTSINTAYMELSRLRSDDTAVYYCARGFGGSYGFAYWGQGTLVTVSS
VL: DIQLTQSPSSLSASVGDRVTMTCSASSSVSSSYLYWYQQKPGKAPKLWIYSTSNLASGVPARFSGSGSGTDFTLTISSLQPEDSASYFCHQWNRYPYTFGGGTRLEIKR
For B1, the EC50 [1] was 1.31 nM and the binding result [2] was “binds”.
